The values below come from patent US20230227577A1 (MYTHIC THERAPEUTICS, published 2023).

One assay deals with T1, mouse DLL3 on CHO cells (mouse, UniProt O88516 33-592).
T1 construct: whole, on cells; also called CHO cells expressing mouse DLL3
T1 sequence (looked up): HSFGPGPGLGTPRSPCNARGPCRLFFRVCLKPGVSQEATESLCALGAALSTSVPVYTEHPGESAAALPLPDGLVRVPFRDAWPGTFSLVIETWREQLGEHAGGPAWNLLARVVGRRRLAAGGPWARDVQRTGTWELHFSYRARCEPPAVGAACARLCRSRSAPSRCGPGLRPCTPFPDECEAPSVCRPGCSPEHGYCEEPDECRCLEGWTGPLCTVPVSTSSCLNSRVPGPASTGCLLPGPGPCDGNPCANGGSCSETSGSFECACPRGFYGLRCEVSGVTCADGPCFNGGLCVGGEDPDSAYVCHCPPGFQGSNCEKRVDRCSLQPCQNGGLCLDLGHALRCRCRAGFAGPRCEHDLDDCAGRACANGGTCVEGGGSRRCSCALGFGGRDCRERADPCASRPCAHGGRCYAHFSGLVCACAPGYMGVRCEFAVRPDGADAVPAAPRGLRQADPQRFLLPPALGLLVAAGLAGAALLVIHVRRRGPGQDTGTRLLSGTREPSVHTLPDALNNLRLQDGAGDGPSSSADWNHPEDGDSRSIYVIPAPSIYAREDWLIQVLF
The experiment in a line: flow cytometry (FACS) on CHO cells expressing mouse DLL3. As to the method:
(§1) Additional experiments were carried out to further characterize the binding properties of the anti-DLL3 constructs. Binding properties tested include dissociation constant (KD), off-rate (koff), binding to DLL3 protein by ELISA and binding to CHO cells expressing human, cyno or mouse DLL3. To obtain off-rate (koff), human biotinylated DLL3 was immobilized on Octet SA tips, and cynomolgus or mouse DLL3 was immobilized on Octet AR2G tips. For each DLL3 protein, the binding to a dilution series of each anti-DLL3 construct was measured using Fortebio Octet Red. The dissociation constant (KD), off-rate (koff) and other kinetic parameters for each anti-DLL3 construct were calculated using a 1:1 binding model. In addition, binding of these anti-DLL3 constructs to CHO cells expressing human, cyno or mouse DLL3 protein was analyzed using flow cytometry (FACS).

The target in assay [1] is T2, DLL3 target antigen coated on Octet SA tips (binning experiment) (Homo sapiens (Human), UniProt Q9NYJ7 27-492, Probably biotinylated for capture on streptavidin (SA) tips. The site is not stated.).
T2 sequence: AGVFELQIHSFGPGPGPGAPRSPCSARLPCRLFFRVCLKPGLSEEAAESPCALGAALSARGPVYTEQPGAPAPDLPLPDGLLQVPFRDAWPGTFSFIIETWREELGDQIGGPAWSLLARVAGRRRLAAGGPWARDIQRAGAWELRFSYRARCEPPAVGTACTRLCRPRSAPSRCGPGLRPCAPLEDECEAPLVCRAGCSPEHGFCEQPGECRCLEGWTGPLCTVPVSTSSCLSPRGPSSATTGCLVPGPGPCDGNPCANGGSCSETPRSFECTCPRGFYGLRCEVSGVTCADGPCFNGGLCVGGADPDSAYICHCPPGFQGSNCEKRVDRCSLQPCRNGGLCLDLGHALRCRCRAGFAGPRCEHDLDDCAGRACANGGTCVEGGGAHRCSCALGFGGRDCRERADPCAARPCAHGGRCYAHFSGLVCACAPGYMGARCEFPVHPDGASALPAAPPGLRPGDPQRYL
The experiment in a line: Octet binning on DLL3-coated SA tips; competitor: DLL3 BiTEs. On the procedure: (§2) Antibody binning experiments were carried out for 5 anti-DLL3 VHHs and an anti-human DLL3 BiTE (SEQ ID NO: 756). The target antigen was coated on a series of Octet SA tips. Each series of tips was first soaked in a periplasmic extract containing one specific VHH. After the response signals reached saturation, the tips were transferred to a mix of PEs containing again the first VHH (at the same concentration) plus a different VHH (termed secondary VHH) for each tip of the series. Secondary VHH that still bind the target antigen in the presence of the first VHH will show an increased response, as compared to the binding response of the first VHH alone. This was repeated for each VHH as primary VHH until all VHH were tested against each other in both directions (as primary and as secondary binder). From the response data, the bins were deduced for each VHH. 2HCE117 and 3HCE4 show competition with the human DLL3 BiTEs, whereas 3HCE56 and 3HCE87 show a partial competition.

For assay [2], the target named is T2, DLL3 target antigen coated on Octet SA …. The experiment in a line: Octet binning on DLL3-coated SA tips; competitor: 3HCE4. As to the method:
as §2

The target of assay [3] is T3, recombinant human DLL3 protein (human, UniProt Q9NYJ7 27-492, limits assumed).
T3 construct: also called rhu DLL3; human biotinylated DLL3
T3 sequence (looked up): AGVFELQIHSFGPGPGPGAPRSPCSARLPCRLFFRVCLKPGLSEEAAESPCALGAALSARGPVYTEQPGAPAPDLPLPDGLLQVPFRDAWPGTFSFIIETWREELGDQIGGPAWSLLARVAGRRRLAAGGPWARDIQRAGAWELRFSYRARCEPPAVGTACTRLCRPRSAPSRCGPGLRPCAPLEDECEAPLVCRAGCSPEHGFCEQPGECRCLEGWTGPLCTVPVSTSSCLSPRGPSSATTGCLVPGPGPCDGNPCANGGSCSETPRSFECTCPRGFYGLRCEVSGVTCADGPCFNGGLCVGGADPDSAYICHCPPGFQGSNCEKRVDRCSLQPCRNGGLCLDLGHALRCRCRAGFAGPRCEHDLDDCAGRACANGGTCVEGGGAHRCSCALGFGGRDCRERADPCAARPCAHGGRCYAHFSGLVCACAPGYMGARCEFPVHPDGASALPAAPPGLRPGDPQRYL
The experiment in a line: Fortebio Octet Red, DLL3 immobilised on tips, dilution series of the VHH, 1:1 binding model; koff error 6.05E-07; Full R2 0.9994. As to the method:
as §1

The next assay has as its target T4, DLL3 (ELISA DLL3).
T4 construct: also called DLL3 protein in ELISA
T4 chain: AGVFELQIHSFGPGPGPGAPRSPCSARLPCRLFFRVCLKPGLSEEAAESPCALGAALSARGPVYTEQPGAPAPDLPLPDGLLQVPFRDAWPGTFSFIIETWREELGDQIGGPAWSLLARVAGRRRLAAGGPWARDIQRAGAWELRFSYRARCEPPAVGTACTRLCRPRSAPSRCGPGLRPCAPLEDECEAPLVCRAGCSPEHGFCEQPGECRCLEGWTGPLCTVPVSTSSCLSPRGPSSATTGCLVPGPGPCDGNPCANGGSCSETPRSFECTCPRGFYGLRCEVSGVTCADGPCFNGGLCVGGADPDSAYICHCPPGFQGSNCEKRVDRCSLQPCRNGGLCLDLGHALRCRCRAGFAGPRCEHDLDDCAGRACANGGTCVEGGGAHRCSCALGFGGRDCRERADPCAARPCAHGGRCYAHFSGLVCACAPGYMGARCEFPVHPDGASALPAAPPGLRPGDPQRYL
The experiment in a line: ELISA, ratio of the signal on DLL3 to the signal on the control.

Assay [4] concerns the target T3, recombinant human DLL3 protein. The experiment in a line: Fortebio Octet Red, DLL3 immobilised on tips, dilution series of the VHH, 1:1 binding model; kon error 1.20E+02; Full R2 0.9994. On the procedure: as §1

B1: 2HCE27 anti-DLL3 VHH (VHH)
VHH: QVQLQESGGGLVQAGGSLRLSCAASGRTFRSYAMGWFRQAPGKEREFIAVIIMSDGSTSYADSVKGRFTISRDNAKNTLYLQMNSLKPEDTAVYYCAARRDYFTGVYDYWGQGTQVTVSS
notes: In the binning assay it was used as a periplasmic extract; also called anti-DLL3 (2HCE27)
Consider B1, for which the binding result with mouse DLL3 on CHO cells is “binds”. Besides, the “binning response (unit not given)” value is 83.4 in assay [1] and 53.4 in assay [2]. Also, the off-rate constant (koff) in assay [3] was 0.000638 s⁻¹. Further, in the assay with DLL3 (ELISA DLL3), the DLL3 / control was found to be 33.3. Further, in assay [4], the kon amounted to 80900 M⁻¹ s⁻¹.
